One substance from publication PMC3124082 can be followed below.

The experiment concerns the target Putative NADPH-quinone reductase. Kind of experiment: SAXS.

Turning to “Putative NADPH-quinone reductase (natural protein)”, the fraction of dimer in the oligomer mixture amounted to 47% and the fraction of tetramer in the oligomer mixture is 53%.
